From paper PMC7211993

Target: MDA-modified bovine serum albumin (bovine), P02769
Test: MST; microscale thermophoresis with both binding partners in fluid phase
Settings: remark: other sources report otherwise

Chain of MDA-modified bovine serum albumin (bovine), P02769 (P02769 25-607): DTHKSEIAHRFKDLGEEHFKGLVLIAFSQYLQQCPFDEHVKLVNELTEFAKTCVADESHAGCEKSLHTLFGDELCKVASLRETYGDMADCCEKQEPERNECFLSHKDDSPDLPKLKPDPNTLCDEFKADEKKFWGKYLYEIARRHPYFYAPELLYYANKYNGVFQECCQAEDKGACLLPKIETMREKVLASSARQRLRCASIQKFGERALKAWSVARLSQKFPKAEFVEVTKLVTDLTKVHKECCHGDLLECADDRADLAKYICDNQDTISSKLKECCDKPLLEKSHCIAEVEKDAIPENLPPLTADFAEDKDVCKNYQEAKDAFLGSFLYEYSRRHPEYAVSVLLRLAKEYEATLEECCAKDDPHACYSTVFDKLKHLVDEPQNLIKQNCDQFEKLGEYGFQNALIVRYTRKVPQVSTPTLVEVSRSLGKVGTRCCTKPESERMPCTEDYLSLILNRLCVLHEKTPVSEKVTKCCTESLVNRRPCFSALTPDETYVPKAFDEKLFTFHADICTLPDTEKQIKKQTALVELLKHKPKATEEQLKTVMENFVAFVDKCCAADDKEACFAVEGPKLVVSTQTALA

Kd: 2.44 µM
B1: complement factor H, P08603 19-1231 (natural protein)
chain: EDCNELPPRRNTEILTGSWSDQTYPEGTQAIYKCRPGYRSLGNVIMVCRKGEWVALNPLRKCQKRPCGHPGDTPFGTFTLTGGNVFEYGVKAVYTCNEGYQLLGEINYRECDTDGWTNDIPICEVVKCLPVTAPENGKIVSSAMEPDREYHFGQAVRFVCNSGYKIEGDEEMHCSDDGFWSKEKPKCVEISCKSPDVINGSPISQKIIYKENERFQYKCNMGYEYSERGDAVCTESGWRPLPSCEEKSCDNPYIPNGDYSPLRIKHRTGDEITYQCRNGFYPATRGNTAKCTSTGWIPAPRCTLKPCDYPDIKHGGLYHENMRRPYFPVAVGKYYSYYCDEHFETPSGSYWDHIHCTQDGWSPAVPCLRKCYFPYLENGYNQNYGRKFVQGKSIDVACHPGYALPKAQTTVTCMENGWSPTPRCIRVKTCSKSSIDIENGFISESQYTYALKEKAKYQCKLGYVTADGETSGSITCGKDGWSAQPTCIKSCDIPVFMNARTKNDFTWFKLNDTLDYECHDGYESNTGSTTGSIVCGYNGWSDLPICYERECELPKIDVHLVPDRKKDQYKVGEVLKFSCKPGFTIVGPNSVQCYHFGLSPDLPICKEQVQSCGPPPELLNGNVKEKTKEEYGHSEVVEYYCNPRFLMKGPNKIQCVDGEWTTLPVCIVEESTCGDIPELEHGWAQLSSPPYYYGDSVEFNCSESFTMIGHRSITCIHGVWTQLPQCVAIDKLKKCKSSNLIILEEHLKNKKEFDHNSNIRYRCRGKEGWIHTVCINGRWDPEVNCSMAQIQLCPPPPQIPNSHNMTTTLNYRDGEKVSVLCQENYLIQEGEEITCKDGRWQSIPLCVEKIPCSQPPQIEHGTINSSRSSQESYAHGTKLSYTCEGGFRISEENETTCYMGKWSSPPQCEGLPCKSPPEISHGVVAHMSDSYQYGEEVTYKCFEGFGIDGPAIAKCLGEKWSHPPSCIKTDCLSLPSFENAIPMGEKKDVYKAGEQVTYTCATYYKMDGASNVTCINSRWTGRPTCRDTSCVNPPTVQNAYIVSRQMSKYPSGERVRYQCRSPYEMFGDEEVMCLNGNWTEPPQCKDSTGKCGPPPPIDNGDITSFPLSVYAPASSVEYQCQNLYQLEGNKRITCRNGQWSEPPKCLHPCVISREIMENYNIALRWTAKQKLYSRTGESVEFVCKRGYRLSSRSHTLRTTCWDGKLEYPTCAKR
modifications: here or on the partner: malondialdehyde-acetaldehyde (MAA) / malondialdehyde (MDA) adducts; sites not stated
